Reference: the supplement of paper PMC10567573
± gives the standard deviation.

Assay: protein stability index of a GFP-peptide fusion (GPS, HEK-293T) (PSI 1-6); higher = more stable
Settings: c terminus: a fixed tail appended
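Also: 24-mer peptide tiles fused after GFP, lentivirally expressed, FACS-sorted into six equal bins by GFP/DsRed ratio, decoded by Illumina sequencing, PSI is the read-weighted mean bin number.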

Row | Sequence | protein stability index (treatment: DMSO) | protein stability index (treatment: MLN4924 1 uM, 8 h)
1 | RPISGTAVAHKTPRCPGSVNEKLP [SMOC2] | 4.53 ± 0.14 | 4.59 ± 0.26
2 | RSPTLEPPRGRSEAPDSLNGPLGP [SMG5] | 4.89 ± 0.26 | 4.77 ± 0.055
3 | SASEMKQLIDNILEESDIDRDGTI [CIB1] | 5.31 ± 0.27 | 5.45 ± 0.2
4 | LVQDQDLEAIRKQDLVELYLTNCE [ZER1] | 3.61 ± 0.4 | 3.85 ± 0.38
5 | STPRCAQQAALPRLSRRMASQHSY [CBY2] | 2.3 ± 0.29 | 2.37 ± 0.079
6 | GKRRKDEISVDSLDFSKKILHTAW [PPP2R2B] | 2.34 ± 0.2 | 2.52 ± 0.049
7 | QFLNDQISVQNYKQVCKIAALHGL [KLHL14] | 2.14 ± 0.28 | 2.17 ± 0.16
8 | YQVHDYLRSKLCSLYENDCIFDKF [PPP2R2B] | 2.58 ± 0.71 | 2.27 ± 0.48
9 | KKTHETLSHAGQKATAAFSNVGTA [TPD52L1] | 4.44 ± 0.28 | 4.34 ± 0.21
10 | TYSGKAADVWSLGVMLYTLLVGRY [TRIB1] | 2.42 ± 0.36 | 2.21 ± 0.042
11 | PSDFCGLTHLVKLDLSKNKLQQLP [LRRC59] | 2.17 ± 0.31 | 2.16 ± 0.17
12 | EEELQEIASEPTNKHLFYAEDFST [MATN2] | 5.26 ± 0.41 | 5.21 ± 0.32
13 | TVDKEVEIRKKVLKIYNKREEDFP [MNAT1] | 4.08 ± 0.17 | 4.27 ± 0.12
14 | APSEGSAEAAPELDLFAMKPPETS [SNAP91] | 5.39 ± 0.23 | 5.47 ± 0.19
15 | DEMVIVKDIDMFSMCEHHLVPFVG [GCH1] | 2.76 ± 0.22 | 2.64 ± 0.37
16 | VQQWLQKGTPASKLILGMPTYGRS [CHIT1] | 2.25 ± 0.25 | 2.51 ± 0.29
17 | MHPINVRRDPSIPIYGLRQSILLN [C22orf31] | 2.33 ± 0.22 | 2.63 ± 0.51
18 | AYIQCQFEDLNKRKDTKEIYTHFT [GNAI1] | 2.14 ± 0.49 | 2.25 ± 0.3
19 | FGDSPKAEKRQIGDQEGPRPARST [FBF1] | 5.11 ± 0.47 | 5.08 ± 0.36
20 | CVKLCTGHEYAAKIINTKKLSARD [CAMK2B] | 3.14 ± 0.18 | 3.18 ± 0.28
21 | QEYEALLNIKVKLEAEIATYRRLL [KRT18] | 2.89 ± 0.28 | 2.82 ± 0.42
22 | KAMNMRYSDRTNIISKPVPQTLIM [FEM1C] | 2.09 ± 0.14 | 2.38 ± 0.5

Row | Sequence | protein stability index (treatment: DMSO) | protein stability index (treatment: MLN4924 1 uM, 8 h)
23 | NYASIIRRDCMWSGFSARERLERA [MYCL] | 2.78 ± 0.3 | 2.77 ± 0.3
24 | SGYDGTFLFQKPGDKYEHHSYMGM [POMT2] | 2.68 ± 0.23 | 2.5 ± 0.5
25 | ALRMATWNQILDPWVYILLRKAVL [PTGFR] | 2.98 ± 0.68 | 2.43 ± 0.41
26 | VNLQRFGMNGQMLCNLGKERFLEL [ETS2] | 2.27 ± 0.36 | 2.27 ± 0.33
27 | FIIEYYNIRPADSRWVRDPRYRED [FBXO34] | 2.44 ± 0.53 | 2.26 ± 0.29
28 | VCDSCHEAITDEERAPTATFHDSK [WDFY2] | 5.02 ± 0.21 | 5.16 ± 0.13
29 | AHIHLQQLTCFSITCSSTMSYSCC [KRT34] | 3.37 ± 0.64 | 2.95 ± 0.26
30 | AGSVFGGGFGGGVGGGFGGGFGGG [KRT15] | 2.56 ± 0.23 | 2.65 ± 0.21
31 | NMMKVLRGHQNWVYSCAFSPDSSM [WSB1] | 2.37 ± 0.96 | 2.64 ± 0.54
32 | DEPVCGRPLGIRAGPNGTLFVADA [APMAP] | 3.83 ± 0.22 | 4.03 ± 0.27
33 | LTLCRSDLEAQMESLKEELLSLKQ [KRT33B] | 2.41 ± 0.28 | 2.8 ± 0.24
34 | RGPPRGLRGGRGGSGGTRGPPSRG [RBMX] | 5.18 ± 0.2 | 4.92 ± 0.33
35 | GWKSMIQSHPHLVAEAFRALASAQ [SPOPL] | 2.4 ± 0.44 | 2.3 ± 0.17
36 | SEEAPSTSGMGFHAPKIGSNGVEM [SDE2] | 4.92 ± 0.17 | 4.89 ± 0.1
37 | EMQQQMSLGELCHPVPLSFEPVKS [TRIM14] | 3.62 ± 0.22 | 4.05 ± 0.31
38 | HLVAGGGAGAVSRTCTAPLDRLKV [SLC25A25] | 3.11 ± 0.35 | 3.25 ± 0.22
39 | EAYLASLRADQEKERKKREERERK [FAF2] | 5.33 ± 0.35 | 5.46 ± 0.23
40 | RMKKNGMEMTRPTPPHLTSAMAEN [NOL4L] | 4.41 ± 0.071 | 4.37 ± 0.29
41 | LSRHDKAVQRFCLIGSLSKHESEY [NETO1] | 2.72 ± 0.12 | 2.69 ± 0.072
42 | YLLKFLLVGDSDVGKGEILESLQD [RAB40C] | 2.72 ± 0.38 | 2.45 ± 0.49
43 | LGLGTRESHSCPQQVPMPPGQEAQ [NEK8] | 4.98 ± 0.19 | 4.87 ± 0.097
44 | LKPLCGCHSFAAAADGPTVCCNPY [SMAD6] | 2.75 ± 0.5 | 2.92 ± 0.39
